Source: the DeepSol protein solubility set

test: soluble on expression in E. coli; label from the status in PepcDB or PDB records

Sequence | soluble on expression in E. coli
MDADASTITPEELDFIRQRALRRFDSIVPTAGREGTEIASDIFKGRTLAIYTSGGDSQGMNSAVRSITRMAIYCGCKVYLIYEGYEGMIEGGDFIKEATWNTVSDIIQQGGTIIGSARSSEFRTREGRLKAATNLINRGIGRLVCIGGDGSLTGANTFRLEWTDLVQELVKNQRVTAAAAKKIPYIQIVGLVGSIDNDFCGTDMTIGTDSALQRIISSIDAVVATAQSHQRAFVIEVMGRHCGYLALVAALASEADFCFIPEWPAPENWRDVLCDKLSQMRSEGQRLNIIIVAEGAIDRDGKAITAEDVKTAVKEKLKYDTRVTILGHVQRGGAPSAFDRLLGCRMGAEAVFALMEMTEESEPCVISIDGNVMVRVPLLKCVERTQMVQKAMADKDWTTAVMLRGRSFQRNLETYKLLTKMRTVEKDNLSEGHKFNVAVINVGAPAGGMNAAVRSYVRMALYHQCTVYGIEDSFEGLANGSFKQFKWSDVTNWAMNGGSFLGTQKSLPTEKTMPQLAAQLKKHNIQALLLVGGFEAYHSTIILAENREKYPEFCIPMCVIPCTISNNVPGTMVSLGSDTAINEICQMIDKIKQSATGTKRRVFIVETMGGYCGYLATLSALSSGADNAYIFEEPFTVQDLSDDVDVILSKMEVGAKRYLVVRNEWADKNLTTDFVQNLFDSEGKKNFTTRVNVLGHVQQGGSPTPFDRNMGTKLAARALEFLLIQLKENLTADNKVIAKSAHTATLLGLKGRKVVFTPVQDLKKETDFEHRLPSEQWWMALRPLLRVLARHRSTVESSAILESVEEESADSHMF | not soluble
MKSVVLGILSSISDEVNLEMIKKYDVKLARRISGGGSVFHDMGNINYTFITSGQGGIDYLYGYLLRGTISAIENLVNDRVEVYNETDIAFKGYKISGNAGYINEDKYLLHGTLLVSSNLDI | soluble
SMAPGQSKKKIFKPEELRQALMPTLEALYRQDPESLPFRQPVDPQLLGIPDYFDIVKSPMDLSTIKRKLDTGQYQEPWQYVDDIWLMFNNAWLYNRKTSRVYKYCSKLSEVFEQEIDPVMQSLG | soluble
HHMDEEYDVIVLGTGLTECILSGIMSVNGKKVLHMDRNPYYGGESSSITPLEELYKRFQLLEGPPETMGRGRDWNVDLIPKFLMANGQLVKMLLYTEVTRYLDFKVVEGSFVYKGGKIYKVPSTETEALASNLMGMFEKRRFRKFLVFVANFDENDPKTFEGVDPQNTSMRDVYRKFDLGQDVIDFTGHALALYRTDDYLDQPCLETINRIKLYSESLARYGKSPYLYPLYGLGELPQGFARLSAIYGGTYMLNKPVDDIIMENGKVVGVKSEGEVARCKQLICDPSYVPDRVRKAGQVIRIICILSHPIKNTNDANSCQIIIPQNQVNRKSDIYVCMISYAHNVAAQGKYIAIASTTVETTDPEKEVEPALELLEPIDQKFVAISDLYEPIDDGSESQVFCSCSYDATTHFETTCNDIKDIYKRMAGSAFDFENMKRKQNDVFGEADQ | soluble
MAERAALEELVKLQGERVRGLKQQKASAELIEEEVAKLLKLKAQLGPDESKQKFVLKTPKGTRDYSPRQMAVREKVFDVIIRCFKRHGAEVIDTPVFELKETLMGKYGEDSKLIYDLKDQGGELLSLRYDLTVPFARYLAMNKLTNIKRYHIAKVYRRDNPAMTRGRYREFYQCDFDIAGNFDPMIPDAECLKIMCEILSSLQIGDFLVKVNDRRILDGMFAICGVSDSKFRTICSSVDKLDKVSWEEVKNEMVGEKGLAPEVADRIGDYVQQHGGVSLVEQLLQDPKLSQNKQALEGLGDLKLLFEYLTLFGIDDKISFDLSLARGLDYYTGVIYEAVLLQTPAQAGEEPLGVGSVAAGGRYDGLVGMFDPKGRKVPCVGLSIGVERIFSIVEQRLEALEEKIRTTETQVLVASAQKKLLEERLKLVSELWDAGIKAELLYKKNPKLLNQLQYCEEAGIPLVAIIGEQELKDGVIKLRSVTSREEVDVRREDLVEEIKRRTGQPLCIC | soluble
MAHHHHHHMMLRSHVGYDDLQNGGSDQPVSFLRSAAGRTYLADGSSALSSAQLTAAQKLLPLTDRSSQAALDAARLEPPIEHASVMYHGCQQAVLNAELREKVEAHYKHWSSRVEELQALLSDLPTESALHSTRAVENLHSYLGAYRCTEDMLVTPSEVVEQHALRTPVPEIDVMFQMPAIPMDTMRRALDDLLRSPYLLAPLDTHLAHLSLLDKLGQLSWSGEGEVTAPLSKKPRGKRAVARKDCTVDESNETGVVLQAEEAAAEEDIYPSRAAVAMHERLHYNPGDYAQRELKKSEEALRELQDRMQTAKRQKEEAIDAADPLTALRNLHAQVDFSNDLLLLYRARMALVSLHSDDTRDFRRDVVDLIDDSHQSVQAVHRYAREALPSVQHDVRAMTEVIRQTQQRLIAMQATEAAADAGMRAHLCDMDKAARVLWEEVGALLEKIAENARERGRYAQKCMSLREQRAKEAAAVNAQLQAQSAHCERLCRCEEVLTRWNQAGDVFGKYMDACVPKLLKHLAAVEESDADLAQREAEGYVGCYEQFVYAAEEARAKRCTQADRMRLLQRSTLLNQERASDTMDPDAPAHAQRLDDVSRELDEVQLYLKYLSDMEADRKAEVDPVLRGVLARQTQAQLVTTGEEGEAEKPLPTPGLLEDAPAASTADAKPSLASPSTAAETTKSTSAVPATAAGDGAVVAATTTATTTAPPSLSVTVAHPFVTARLIGLAHESDYISQQGQLLGQEMQAVEAKWTGLRHSRKELQAMEEKYKNGDDIRALLGVEKL | soluble
MRALPICLVALMLSGCSMLSRSPVEPVQSTAPQPKAEPAKPKAPRATPVRIYTNAEELVGKPFRDLGEVSGDSCQASNQDSPPSIPTARKRMQINASKMKANAVLLHSCEVTSGTPGCYRQAVCIGSALNITAKLEHHHHHH | not soluble
MYSVLIPVDRDEARASNQASYVSQLPDATDTVEATVLYVVPPDEFADAAEVAFDDIDAAVQAANQLEAAGVSVTRMVDDGGVAQQIVRTATELDSDEIVVGGRKRSGVSKVLLGSTAQDVLLSAERPVTITGESVVL | not soluble
NGLLYKRWVKQRAEDVEKWSGGRLGYVHIQSMGDGSFRTVYSDILGKYNNCDGIVIDTRFNGGGRLHEDIEILFSGQKYFTQVVRGREACDMPSRRWNKPSIMLQCEANYSNAHGTPWVYKHQNIGKLVGMPVPGTMTSVSWETLQDPSLVFGIPIIGYRLPDGSYLENTQLEPDIKVANSPETIVKGEDTQLKMAVDELLKEIDSRKK | not soluble
SPSSPLRVAVVCSSNQNRSMEAHNILSKRGFSVRSFGTGTHVKLPGPAPDKPNVYDFKTTYDQMYNDLLRKDKELYTQNGILHMLDRNKRIKPRPERFQNCTDLFDLILTCEERVYDQVVEDLNSREQETCQPVHVVNVDIQDNHEEATLGAFLICELCQCVSLSSWVLLGLLIATYKNKIK | soluble
RATDPFIVKHPLTGEKTIIAGYPWFSDWGRDVMISFPGLVLIPRRFEDAKSILKNFSSNCRRGLIPNNFPAFGGEPVYNTVDASLWFIHSLSRYFAYTEDLLFLSDIWGTVEDIIDNYSKGTDFGIGMDSDYLIRQGPQLTWMDAKVNDIPVTPRAGKACEINALWYNALRTACRLGDLLGRDTSSYETLAAGVASNFERVFWNPENNCLHDIVSEDKAGNQIKDSSIRPNQIFAVSLPYTMLSPEKEKAIVDRVEKDLLTPFGLRTLSLDDPSYIGLYRGGSESRDSAYHNGTVWPWLLGPYVKAYRKVHNYSKKSLEDMRALLQGFDSHLETAGIGTISEVFDGDFPHSPGGCIAQAWSVAEILRAYVEDVLGIKP | not soluble
GPLGSTSLVQGLTPPPDFNQCLKNSPDEKFFSDFSNNMGSRKNPDPLATEEVPNQEQIPEEGFIHTQYGQKPEQPSGASAGHRFPQGYHSDKRRLSKASSKARSDDLSV | soluble
MLRVAVSAALRTVSVRALSNASVQQRVITPILLSAQKPSFQIRQYSAKAPLTKKTLEERIVLVLSLYDKIDAKKLTMDSDFSKDLGLDSLDHVEVVMAMEEEFGFEIPDGDADRFKTPRDIFQYIADKEDVFE | not soluble
SMFKYEEIVLERGNSGLGFSIAGGIDNPHVPDDPGIFITKIIPGGAAAMDGRLGVNDCVLRVNEVDVSEVVHSRAVEALKEAGPVVRLVVRRRQPPPEETSV | soluble
MGSDKIHHHHHHVAVKAYLKRELRNLQSLAPAVRTAKFSLYNFGTRSAGLFVEPEFKLLAHLRPVKLAIDIGGNWGQSVLALQRYAAPERIVTFEPNPELYRRLSARFRSDPSIQVENVGLGDAAGQFDLHIPLYRNFVYDGLASLNKDEAAQWLNPRTMARFDPSKLTIQSHTVRVVKLDDYNLVPDIIKIDVQGLEDAVARGGIKTIDRAKPAMIVEAPSASFVQMMADCGLRPYTWNGTRLVDAADGSNVMFLSDEKLRKLVKVRPKPEKPE | not soluble
MKKFFQEIKADIKFKSAGPGQKLTDSAGEKTTKGKSPQLALRQPRQGPTDEAQMAAAAALARLEQKQPRARGPTSQDSIRNQVRKELQAEATSSNNPGAPGTNSVPEPKEEISPHLAVPGVFFICPLTGVTLRRDQRDAHIKQAILSHFSTDPVAASIMKIHTFNRDRDRVKLGVDTIAKYLDNIHLHPEEEKYQKIKLQNKVFQERINCLEGSHEFFEAIGFKKVTLPVPDQEGQEEFYVLGEDARAQPQNLARHKQQLLDAEPVRATLDRQLRVFRPSALASHFELPSDFFSLTAEEVKREQRLRTEAVERLSSLRTKAMREKEEQRELRKYTYALVRVRLPDGCLLQGTFYAREKLSALFRFVREALQNDWLPFELRASGGQKLEENEALALNECGLVPSALLTFSWDASVLEDIRAAGAEPAKSVLRPELLAAIEQLS | soluble
MGSDKIHHHHHHMSLLINLSFILTKPTGTTTYAFNLLPHLKPLQPTLLTSQYFPNYNSYQTPVNQTSEQGIKGHLRRLRWTQFKLPKIYNNLKSSLLFSPLPEAPLYTNCRFVITSFDMIPLRFPKRFSPLIPYHRYYTPQVLKQAQHIICISQTTAEDITNFYGIPANKITPILLAYDRTHFRPLNLATRNYFLYIGRQEPYKNIQRLLAAFAALPNHKDYELWLVGPSDLRYTPTLKTQVEELSITNQVKFLDYVPYSELPKIINEAIALVFPSLWEGFGLPVLEAMACGTPVITSNLSSLPEVAGDAAILIDPYNTVEITEAMQVIATNSALRSHLSSQGIIHCQQFSWEKTAKATAEVLSRYM | not soluble
MATPEGQAEEKAVKLAAEEINAQGGILGYKVEVVVGDTKLDSNTATSEFRRLATVENADVIIGGFSSGVMTAMMETMAETKTLFLSDASSPAHAQKVEQNYEKYKYWFRVSQNNGSTFALDLADMVKFLRDSGYEVKKVYIIRDEHVWTDPVMAALKPLLEEMGVEIVKDVKIPRGYSEYEQLILEAESLNADLIMPILAISGTGDVLAKQWATLKPNLLLAGHDLAPIDPEFYEKTNGMANYEIFLADGGALVTAPPTEKCREFVEAYKAKYGHYPESHQAYGAYDAVYLYKMVVEMAAKNGEKDPFNPDVLVKYLEKFDASNPVKLTRTIAFYPNHDLMWGDDYVRNWISQWQDGKQYIIYPPSVANGELKLPPWIEK | not soluble
MAGNSIGQFFRVTTFGESHGIALGCIIDGVPPGIPITEADIQLDLDRRRPGTSRYTTQRRELDQVRILSGVFEGVTTGTSIGLMIENTDQRSQDYSAIKDVFRPGHADYTYEQKYGVRDYRGGGRSSARETAMRVAAGAIAKKYLAQKFGVQVRGYLAQMGDVSCDLLDWDLVEQNPFFCPDASKLEPLDALMRELKKAGDSIGAKITVVAENVPVGLGEPVFDRLDADLAHALMSINAVKGVEIGDGFAVVTKRGSENRDEITPQGFQSNHAGGILGGISSGQPVVAHIALKPTSSIMVPGQTINRQGEAVEMVTRGRHDPCVGIRAVPIAEAMMAIVLMDHLLRQRAQCGDVASDVPRW | not soluble
